Numbering of substitutions follows the chain as printed. No end group written: not given here.
T1: CD1d molecule expressed on JAWS2 cells, P11609
T1 chain: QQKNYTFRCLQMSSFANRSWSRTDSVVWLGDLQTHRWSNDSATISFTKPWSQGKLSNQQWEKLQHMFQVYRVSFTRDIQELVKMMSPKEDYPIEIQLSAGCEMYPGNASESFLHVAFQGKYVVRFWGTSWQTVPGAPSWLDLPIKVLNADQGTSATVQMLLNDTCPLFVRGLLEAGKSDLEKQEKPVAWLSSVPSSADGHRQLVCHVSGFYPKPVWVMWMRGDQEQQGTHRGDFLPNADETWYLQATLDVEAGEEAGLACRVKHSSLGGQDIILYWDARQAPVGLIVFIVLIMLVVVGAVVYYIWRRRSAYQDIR

B1: Der p 1 in natural sequence (SEQ ID17) (protein)
chain: TNACSINGNAPAEIDLRQMRTVTPIRMQGGCGSCWAFSGVAATESAYLAYRNQSLDLAEQELVDCASQHGCHGDTIPRGIEYIQHNGVVQESYYRYVAREQSCRRPNAQRFGISNYCQIYPPNVNKIREALAQTHSAIAVIIGIKDLDAFRHYDGRTIIQRDNGYQPNYHAVNIVGYSNAQGVDYWIVRNSWDTNWGDNGYGYFAANIDLMMIEEYPYVVIL
B2: mutated Der p 1 (SEQ ID16) (protein)
chain: B1 chain with F37S, H135S, Y216S
B3: CD1d tetramers loaded with peptide of SEQ ID15 (peptide-MHC, part only; not given: CD1d and beta-2 microglobulin, part only)
peptide: YPYVVIL
B4: CD1d tetramers loaded with peptide of SEQ ID13 (peptide-MHC, part only; not given: CD1d and beta-2 microglobulin, part only)
peptide: FSGVAAT
B5: CD1d tetramers loaded with peptide of SEQ ID14 (peptide-MHC, part only; not given: CD1d and beta-2 microglobulin, part only)
peptide: HSAIAAVI
B6: CD1d tetramers loaded with peptide of SEQ ID1 (44pept) (peptide-MHC, part only; not given: peptide flanks, CD1d, beta-2 microglobulin, part only)
peptide, part: FCHISSH
modifications: also: loaded on fluorochrome-labelled CD1d tetramers

Legend:
[1] = biological target: T1, CD1d molecule expressed on JAWS2 cells, …
[2] = biological target: T cell receptors of CD4+ NKT cells from the spleen of BALB/c mice given intranasal Der p 1; experiment: tetramer staining of spleen CD4+ T cells, facs
[3] = biological target: T cell receptors of NKT cells among spleen CD4+ T cells of hemophilia A mice immunized with Factor VIII; experiment: fluorochrome-labeled tetramer, 30 minutes at 4 C, Facs

Binder	percentage of cells stained with the tetramers [2] [%]	also measured
B1	–	production of cytokines such as IFN-gamma and IL-4 as markers of NKT activation [1]: a significant production of cytokines was present
B2	–	production of IFN-gamma and IL-4 taken as an indication of NKT activation [1]: NKT cells obtained from mice immunized with natural sequence Der p 1 failed to be activated when incubated in the presence of JAWS2 cells loaded with mutated Der p 1
B3	10	–
B4	10	–
B5	10	–
B6	–	% of NKT cells recognizing the tetramer [3]: < 45%
